The text below walks through data of US12404345B2, “Humanized antibodies against iRHOM2” (SCIRHOM GMBH, priority 2021, dated 2025).

Numbering of substitutions follows the chain as printed.

In one experiment the test system is cynomolgus monkey iRhom2. Put plainly: FACS cross-reactivity on MEF-DKO-Cyno-iR2-FL-WT-T7 cells. Type of experiment: binding. The note with it: antibody at 3 μg/ml. An excerpt:
(§1) Next, iRhom1/2−/− DKO MEFs stably expressing a tagged form of rhesus monkey, cynomolgus monkey, dog or rabbit iRhom2 were generated in order to determine cross-reactivity of the antibodies of the invention with the respective orthologue of iRhom2. iRhom1/2−/− DKO MEFs stably expressing a tagged form of rhesus monkey, cynomolgus monkey, dog or rabbit iRhom1 were generated to confirm specificity for iRhom2 versus iRhom1 of these species.
(§2) In brief, on day 1, Phoenix-ECO cells (American Type Culture Collection, USA) were seeded on 6-well tissue culture plates (Greiner, Germany) in standard growth medium at 8×10^5 cells per well and kept overnight at 37° C., 5% CO2. On day 2, the medium was replaced by fresh medium supplemented with chloroquine (Sigma-Aldrich, USA) at a final concentration of 25 μM. Applying the calcium phosphate method, cells were transfected with 2 μg/ml of pMSCV (Clontech, USA) empty vector, pMSCV-rhesus-iR2-FL-WT-T7 encoding rhesus monkey iRhom2 full length wild type C-terminally tagged with 3 consecutive copies of the T7 epitope, pMSCV-cyno-iR2-FL-WT-T7 encoding cynomolgus monkey iRhom2 full length wild type C-terminally tagged with 3 consecutive copies of the T7 epitope, pMSCV-dog-iR2-FL-WT-T7 encoding dog iRhom2 full length wild type C-terminally tagged with 3 consecutive copies of the T7 epitope or pMSCV-rabbit-iR2-FL-WT-T7 encoding rabbit iRhom2 full length wild type C-terminally tagged with 3 consecutive copies of the T7 epitope, respectively, and were kept at 37° C., 5% CO2. After 7 hours, the transfections were stopped by replacing cell supernatants with standard growth medium lacking chloroquine, and cells were incubated at 37° C., 5% CO2 to allow virus production overnight. In parallel, immortalized iRhom1/2−/− DKO MEFs as target cells for retroviral infection were seeded on 6-well tissue culture plates (Greiner, Germany) in standard growth medium at 1×10^5 cells per well and were also kept overnight at 37° C., 5% CO2. On day 3, the supernatants of Phoenix-ECO cells releasing pMSCV, pMSCV-rhesus-iR2-FL-WT-T7, pMSCV-cyno-iR2-FL-WT-T7, pMSCV-dog-iR2-FL-WT-T7 or pMSCV-rabbit-iR2-FL-WT-T7 ecotrophic virus, respectively were collected, filtered with 0.45 μm CA filters, and supplemented with 4 μg/ml of polybrene (Sigma-Aldrich, USA). Upon removal of medium from the immortalized iRhom1/2−/− DKO MEFs, the virus containing supernatants were added to the target cells for 4 hours at 37° C., 5% CO2 for first infection. Simultaneously, Phoenix-ECO cells were re-incubated with fresh medium, which, after another 4 hours, was filtered and used for the second infection of the respective target cell populations, again in the presence of 4 μg/ml of polybrene. Likewise, a third, but overnight infection cycle was performed. On day 4, virus containing cell supernatants were replaced by fresh standard growth medium. From day 5 onwards, cells were grown in the presence of 2 mg/ml of geneticin (G418, Thermo Fisher Scientific, USA) for the selection of immortalized MEF-DKO-EV control cells stably infected with pMSCV empty vector, pMSCV-rhesus-iR2-FL-WT-T7 cells stably expressing rhesus monkey iRhom2 full length wild type C-terminally tagged with 3 consecutive copies of the T7 epitope, pMSCV-cyno-iR2-FL-WT-T7 cells stably expressing cynomolgus monkey iRhom2 full length wild type C-terminally tagged with 3 consecutive copies of the T7 epitope, pMSCV-dog-iR2-FL-WT-T7 cells stably expressing dog iRhom2 full length wild type C-terminally tagged with 3 consecutive copies of the T7 epitope or pMSCV-rabbit-iR2-FL-WT-T7 cells stably expressing rabbit iRhom2 full length wild type C-terminally tagged with 3 consecutive copies of the T7 epitope, respectively. Upon propagation, cells were stocked for future usage. In parallel, iRhom1/2−/− DKO MEFs stably expressing a tagged form of rhesus monkey, cynomolgus monkey, dog or rabbit iRhom1 were generated in an analogous manner. […]

In another experiment the target is T1, dog iRhom2 (Canis lupus familiaris, UniProt Q00M95).
T1 construct: pMSCV-dog-iR2-FL-WT-T7 encoding dog iRhom2 full length wild type; expressed in transfected cells; host or cells: immortalized iRhom1/2-/- DKO mouse embryonic fibroblasts, pMSCV retroviral infection
T1 sequence (Q00M95 1-827): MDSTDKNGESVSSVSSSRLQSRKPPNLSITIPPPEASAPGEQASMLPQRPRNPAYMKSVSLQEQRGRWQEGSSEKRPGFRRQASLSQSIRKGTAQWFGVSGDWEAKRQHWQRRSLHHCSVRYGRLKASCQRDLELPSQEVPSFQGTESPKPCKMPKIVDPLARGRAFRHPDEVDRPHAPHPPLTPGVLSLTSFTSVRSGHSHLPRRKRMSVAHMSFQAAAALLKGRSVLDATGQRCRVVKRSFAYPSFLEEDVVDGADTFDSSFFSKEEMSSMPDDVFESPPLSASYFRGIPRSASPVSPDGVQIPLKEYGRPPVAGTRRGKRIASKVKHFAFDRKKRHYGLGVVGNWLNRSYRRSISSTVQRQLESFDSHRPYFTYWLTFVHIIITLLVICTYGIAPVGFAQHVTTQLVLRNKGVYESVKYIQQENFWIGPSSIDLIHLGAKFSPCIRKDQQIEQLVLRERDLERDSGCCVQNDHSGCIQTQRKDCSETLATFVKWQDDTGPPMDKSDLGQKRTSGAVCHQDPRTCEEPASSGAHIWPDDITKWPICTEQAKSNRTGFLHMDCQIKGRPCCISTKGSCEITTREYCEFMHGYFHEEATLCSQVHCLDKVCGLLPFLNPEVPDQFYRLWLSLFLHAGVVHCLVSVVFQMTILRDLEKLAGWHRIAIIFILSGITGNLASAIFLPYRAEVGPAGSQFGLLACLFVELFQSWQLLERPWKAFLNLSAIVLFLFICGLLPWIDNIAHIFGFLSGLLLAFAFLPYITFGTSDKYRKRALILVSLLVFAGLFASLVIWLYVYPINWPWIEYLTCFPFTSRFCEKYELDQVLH
Put plainly: FACS cross-reactivity on MEF-DKO-Dog-iR2-FL-WT-T7 cells. Type of experiment: binding. The note with it: antibody at 3 μg/ml.
Excerpt: as §1, §2

B1: 23-B-04: humanized antibody binding human iRhom2; HCVD SEQ ID NO 25, LCVD SEQ ID NO 29 (antibody, V domains shown)
VH: QVTLRESGPALVKPTQTLTLTCTFSGFSLSTFGMGVGWIRQPPGKALEWLAHIWWDDEKYYNSALKSRLTISKDTSKNQVVLTITNMDPVDTATYYCARISNYGSNYWYFNVWGQGTLVTVSS
VL: AIQLTQSPSSLSASVGDRVTITCRASSSVSYMYWYQQKPGKAPKVLIYDTSNLASGVPSRFSGSGSGTDYTLTISSLQPEDFATYYCQQWNAYPLTFGQGTKLEIK
modifications: antibody sequences
B1: in the experiment on cynomolgus monkey iRhom2, the “binding to cynomolgus monkey iRhom2 on MEF-DKO-Cyno-iR2-FL-WT-T7 cells” value (“binding to cynomolgus monkey iRhom2” for short) is given as “recognize cynomolgus monkey iRhom2”. Also, the “binding to dog iRhom2 on MEF-DKO-Dog-iR2-FL-WT-T7 cells” value (from here on “binding to dog iRhom2”) with dog iRhom2 is listed as “recognize dog iRhom2”.

B2: 42-B-02: humanized antibody binding human iRhom2; HCVD SEQ ID NO 33, LCVD SEQ ID NO 37 (antibody, V domains shown)
VH: B1 VH with M34R, S101Q, N111D
VL: B1 VL with S28R, V29I, Y33F, A92S
modifications: antibody sequences
As for B2, the “binding to cynomolgus monkey iRhom2” value in the experiment on cynomolgus monkey iRhom2 is listed as “recognize cynomolgus monkey iRhom2”. Also, in the experiment with dog iRhom2, the “binding to dog iRhom2” value was “recognize dog iRhom2”.

B3: 42-B-04: humanized antibody binding human iRhom2; HCVD SEQ ID NO 41, LCVD SEQ ID NO 45 (antibody, V domains shown)
VH: B1 VH with M34R, S101Q, N111D
VL: B1 VL with S28R, V29I, Y33F
modifications: antibody sequences
On to B3, for which the “binding to cynomolgus monkey iRhom2” value in the experiment with cynomolgus monkey iRhom2 is “recognize cynomolgus monkey iRhom2”. In the experiment with dog iRhom2, the “binding to dog iRhom2” value is listed as “recognize dog iRhom2”.

B4: 16-B-03: humanized antibody binding human iRhom2; HCVD SEQ ID NO 1, LCVD SEQ ID NO 5 (antibody, V domains shown)
VH: QVTLRESGPALVKPTQTLTLTCTFSGFSLSTFALGVGWIRQPPGKALEWLAHIWWDDDKYYNPALKSRLTISKDTSKNQVVLTITNMDPVDTATYYCARITTYYYGMDYWGQGTLVTVSS
VL: EIVMTQSPDFQSVTPKEKVTITCRASQSIGNHLHWYQQKPDASPKLLIKYASQSISGVPSRFSGSGSGTDFTLTINSLEAEDAATYFCQQSYQWPLTFGQGTKLEIK
modifications: antibody sequences
For B4, the “binding to cynomolgus monkey iRhom2” value in the experiment with cynomolgus monkey iRhom2 was “Strong binding”. In addition, in the experiment with dog iRhom2, the “binding to dog iRhom2” value was “Strong binding”.

B5: 16-B-07: humanized antibody binding human iRhom2; HCVD SEQ ID NO 17, LCVD SEQ ID NO 21 (antibody, V domains shown)
VH: B4 VH with D57E
VL: B4 VL
modifications: antibody sequences
Take B5: in the experiment on cynomolgus monkey iRhom2, the “binding to cynomolgus monkey iRhom2” value is listed as “recognize cynomolgus monkey iRhom2”. Also, in the experiment with dog iRhom2, the “binding to dog iRhom2” value is listed as “recognize dog iRhom2”.

B6: 16-B-05: humanized antibody binding human iRhom2; HCVD SEQ ID NO 9, LCVD SEQ ID NO 13 (antibody, V domains shown)
VH: B4 VH with D57E
VL: B4 VL with Q93N
modifications: antibody sequences
In the case of B6, the “binding to cynomolgus monkey iRhom2” value in the experiment on cynomolgus monkey iRhom2 is recorded as “recognize cynomolgus monkey iRhom2”. Moreover, the “binding to dog iRhom2” value with dog iRhom2 is “recognize dog iRhom2”.
